Test results: the supplement of paper PMC12042874
± gives the uncertainty stated by the source.

assay: amyloid nucleation score (Sup35N fusion, yeast selection) (log enrichment); library NNK1; higher = more nucleation; inactive = no reads after selection
Procedure, shortened: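 Output and input plasmid inserts were sequenced by Illumina after psi-negative yeast carrying Sup35N fused to peptides of 20 random codons had been induced 24 hours with 100 μM copper sulfate and grown 7 days at 30°C on medium lacking adenine and uracil. The nucleation score is the DiMSum log enrichment of output over input reads, centred on the mode score of non-aggregating sequences. Sequences with under 100 input reads were excluded.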

Question: Which amyloid nucleation score does the source give for IGYCKWGSDYGCESAT here?
Answer: The amyloid nucleation score was 1.07 ± 0.93.

Question: Which amyloid nucleation score does the source give for IGYCSSGQNDPNIASLYCFH here?
Answer: The amyloid nucleation score was -1.19 ± 0.81.

Question: With IHALLRQNMD as the substance, how does the amyloid nucleation score read?
Answer: The amyloid nucleation score was -0.599 ± 0.39.

Question: For IHEMTSWVTCRFCGVFKYIL, which amyloid nucleation score is on record?
Answer: Its amyloid nucleation score is 2.03 ± 0.13.

Question: For IHHKD, which amyloid nucleation score is on record?
Answer: The amyloid nucleation score was -0.616 ± 0.24.

Question: Which amyloid nucleation score does the source give for IHWNWWIRLCGFPFAFYISG here?
Answer: The amyloid nucleation score was 0.233 ± 0.32.

Question: Which amyloid nucleation score does the source give for IICFVVISWTRFLMSQKCFC here?
Answer: The amyloid nucleation score was -0.143 ± 0.35.

Question: With IICICLVIISFRFCFSIKFM as the substance, how does the amyloid nucleation score read?
Answer: The amyloid nucleation score was -2.57 ± 2.7.

Question: With IIFGRGFFSHSGVRTNQCYT as the substance, how does the amyloid nucleation score read?
Answer: Its amyloid nucleation score is -1.43 ± 1.

Question: With IIFNEIIHMQFDNIGDV as the substance, how does the amyloid nucleation score read?
Answer: Its amyloid nucleation score is 3.27 ± 0.17.

Question: With IIIACFVSCNELVGVSVIKT as the substance, how does the amyloid nucleation score read?
Answer: The amyloid nucleation score was 0.037 ± 0.25.

Question: For IILFNRILLV, which amyloid nucleation score is on record?
Answer: Its amyloid nucleation score is “inactive”.

Question: Which amyloid nucleation score does the source give for IIRNVTL here?
Answer: The amyloid nucleation score was 0.263 ± 0.24.

Question: With IISISINGSVRWSCTRSGAD as the substance, how does the amyloid nucleation score read?
Answer: Its amyloid nucleation score is 0.499 ± 0.53.

Question: Which amyloid nucleation score does the source give for IISRRCKML here?
Answer: The amyloid nucleation score was 1.37 ± 0.5.

Question: For IIVFGSLEELVGAGLLGRLR, which amyloid nucleation score is on record?
Answer: The amyloid nucleation score was -0.106 ± 1.7.

Question: For IKMSSRYFMLGTLLSPGLEV, which amyloid nucleation score is on record?
Answer: Its amyloid nucleation score is “inactive”.

Question: With IKVQASQDP as the substance, how does the amyloid nucleation score read?
Answer: Its amyloid nucleation score is 9.252 ± 0.05.

Question: For ILAVLVTYIANTACSWYYVF, which amyloid nucleation score is on record?
Answer: The amyloid nucleation score was 0.052 ± 0.64.

Question: For ILERSHRVGYCAHLLCISVN, which amyloid nucleation score is on record?
Answer: The amyloid nucleation score was 0.171 ± 0.63.

Question: With ILFGTAHCIIG as the substance, how does the amyloid nucleation score read?
Answer: Its amyloid nucleation score is 1.52 ± 0.13.

Question: For ILGVSMPPFYSV, which amyloid nucleation score is on record?
Answer: The amyloid nucleation score was -0.532 ± 0.84.

Question: For ILHDNFKSSELFAWSAYCRY, which amyloid nucleation score is on record?
Answer: The amyloid nucleation score was “inactive”.

Question: For ILIDYRGSEPG, which amyloid nucleation score is on record?
Answer: Its amyloid nucleation score is 0.224 ± 1.4.

Question: Which amyloid nucleation score does the source give for ILKATHGSHDIYPAWNGRIS here?
Answer: Its amyloid nucleation score is 3.2 ± 0.12.

Question: For ILNYVRPCS, which amyloid nucleation score is on record?
Answer: Its amyloid nucleation score is 0.416 ± 0.56.

Question: For ILPEPGMLFDIILNLHAKKF, which amyloid nucleation score is on record?
Answer: The amyloid nucleation score was 2.65 ± 0.11.

Question: With ILSGVFLIRIEAKSNK as the substance, how does the amyloid nucleation score read?
Answer: The amyloid nucleation score was -0.179 ± 1.2.

Question: Which amyloid nucleation score does the source give for ILSRCVC here?
Answer: Its amyloid nucleation score is 0.608 ± 0.37.

Question: Which amyloid nucleation score does the source give for ILVHSMGFLGKRYCGCMWGD here?
Answer: Its amyloid nucleation score is 3.41 ± 0.13.

Question: With ILVVGWFFHLGCLTMSDVVV as the substance, how does the amyloid nucleation score read?
Answer: The amyloid nucleation score was 0.225 ± 1.1.

Question: Which amyloid nucleation score does the source give for ILYFLPNFHIMLSLI here?
Answer: Its amyloid nucleation score is “inactive”.

Question: Which amyloid nucleation score does the source give for ILYMLPILRKLVSFEFNYIC here?
Answer: Its amyloid nucleation score is 0.117 ± 0.21.

Question: For ILYTCSSQSASFTGLWTSGL, which amyloid nucleation score is on record?
Answer: Its amyloid nucleation score is 2.03 ± 0.16.

Question: For IMNMSSNIRK, which amyloid nucleation score is on record?
Answer: Its amyloid nucleation score is -0.539 ± 0.34.

Question: For IMSCDERWN, which amyloid nucleation score is on record?
Answer: The amyloid nucleation score was 0.287 ± 0.23.

Question: Which amyloid nucleation score does the source give for IMTPIRGNN here?
Answer: The amyloid nucleation score was 0.209 ± 0.34.

Question: For IMVANVSPSQKFNG, which amyloid nucleation score is on record?
Answer: Its amyloid nucleation score is 0.346 ± 0.4.

Question: With IMVHWMIYCGRMYLHCSSIV as the substance, how does the amyloid nucleation score read?
Answer: Its amyloid nucleation score is 0.086 ± 0.97.

Question: Which amyloid nucleation score does the source give for INAFYVVLIIRYVPSSKLLI here?
Answer: The amyloid nucleation score was “inactive”.

Question: Which amyloid nucleation score does the source give for INCQMWYRGPYIIQFLNLGW here?
Answer: The amyloid nucleation score was 6.846 ± 0.055.

Question: With INGFYCCRV as the substance, how does the amyloid nucleation score read?
Answer: The amyloid nucleation score was 0.787 ± 0.21.

Question: For INLNRHGSLE, which amyloid nucleation score is on record?
Answer: The amyloid nucleation score was 1.6 ± 0.39.

Question: With INMYWY as the substance, how does the amyloid nucleation score read?
Answer: The amyloid nucleation score was -0.031 ± 0.31.

Question: With INNIVK as the substance, how does the amyloid nucleation score read?
Answer: Its amyloid nucleation score is 0.602 ± 0.29.

Question: Which amyloid nucleation score does the source give for INQLRITWLD here?
Answer: Its amyloid nucleation score is 2.46 ± 0.12.

Question: With INSNWASLRDRYARIASRSS as the substance, how does the amyloid nucleation score read?
Answer: Its amyloid nucleation score is -0.372 ± 0.47.

Question: Which amyloid nucleation score does the source give for IPLAGLFYSFWISLHTRSNT here?
Answer: The amyloid nucleation score was -0.308 ± 0.52.

Question: For IPMPLCCVIPPWFTTFFVNQ, which amyloid nucleation score is on record?
Answer: The amyloid nucleation score was 4.81 ± 0.092.

Question: For IPRYVYIGLTPKAVLKQNLA, which amyloid nucleation score is on record?
Answer: The amyloid nucleation score was -1.04 ± 0.84.

Question: For IQNDCILVNSVSWYCVSGPP, which amyloid nucleation score is on record?
Answer: Its amyloid nucleation score is 5.29 ± 0.064.

Question: For IQTKGNKDVIGVYITMYTRL, which amyloid nucleation score is on record?
Answer: Its amyloid nucleation score is -0.671 ± 0.28.

Question: With IQYNSKIRVFALDYPIEFPC as the substance, how does the amyloid nucleation score read?
Answer: The amyloid nucleation score was 0.083 ± 0.61.

Question: For IREFRRL, which amyloid nucleation score is on record?
Answer: Its amyloid nucleation score is 0.313 ± 0.65.

Question: For IRMVMGTNKFDHVKSRDN, which amyloid nucleation score is on record?
Answer: The amyloid nucleation score was “inactive”.

Question: Which amyloid nucleation score does the source give for IRNIRRI here?
Answer: The amyloid nucleation score was -0.262 ± 0.28.

Question: For IRPLIFVIGHN, which amyloid nucleation score is on record?
Answer: The amyloid nucleation score was 0.794 ± 0.5.

Question: For IRTMSGNDKPI, which amyloid nucleation score is on record?
Answer: The amyloid nucleation score was -0.36 ± 0.33.

Question: For IRWTEL, which amyloid nucleation score is on record?
Answer: The amyloid nucleation score was 0.512 ± 0.24.

Question: With ISFCGTRGFK as the substance, how does the amyloid nucleation score read?
Answer: Its amyloid nucleation score is 0.154 ± 0.75.

Question: With ISGRVGAWSPIVYWPLRRGG as the substance, how does the amyloid nucleation score read?
Answer: Its amyloid nucleation score is -0.573 ± 0.61.

Question: For ISGSHFVSLPV, which amyloid nucleation score is on record?
Answer: Its amyloid nucleation score is 0.518 ± 0.38.

Question: Which amyloid nucleation score does the source give for ISGTLGSRVMGLSAWVRVSR here?
Answer: Its amyloid nucleation score is -0.114 ± 0.38.

Question: Which amyloid nucleation score does the source give for ISIRIEDFLYSQ here?
Answer: Its amyloid nucleation score is 0.237 ± 0.57.

Question: With ISLDFDNYRVILLKRLVGVM as the substance, how does the amyloid nucleation score read?
Answer: Its amyloid nucleation score is -0.594 ± 0.33.

Question: For ISNYNFNRWHAVSNLGRCIS, which amyloid nucleation score is on record?
Answer: The amyloid nucleation score was -0.033 ± 0.73.

Question: Which amyloid nucleation score does the source give for ISSLTV here?
Answer: Its amyloid nucleation score is -1.33 ± 0.68.

Question: Which amyloid nucleation score does the source give for ISTRQMFVYLRVHCFIDAVE here?
Answer: Its amyloid nucleation score is 0.043 ± 0.48.

Question: Which amyloid nucleation score does the source give for ISTSC here?
Answer: Its amyloid nucleation score is 0.778 ± 0.49.

Question: With ISVHIFKGLYRSKSVAWRNV as the substance, how does the amyloid nucleation score read?
Answer: Its amyloid nucleation score is -0.069 ± 1.1.

Question: For ISVLVHMMRKAFVQG, which amyloid nucleation score is on record?
Answer: The amyloid nucleation score was 0.768 ± 0.39.

Question: With ISWQAVTSRGTCNN as the substance, how does the amyloid nucleation score read?
Answer: Its amyloid nucleation score is -1.01 ± 0.68.

Question: For ISYRNLIRFCFSPYAKLWRF, which amyloid nucleation score is on record?
Answer: Its amyloid nucleation score is 0.69 ± 0.52.

Question: Which amyloid nucleation score does the source give for ITEVLKNVKKWFCFIRISVG here?
Answer: The amyloid nucleation score was 0.113 ± 0.5.

Question: For ITFERGYCTKNITFATTTCP, which amyloid nucleation score is on record?
Answer: Its amyloid nucleation score is 1.23 ± 0.47.

Question: For ITPGLVAPSPDTKCSACDIL, which amyloid nucleation score is on record?
Answer: The amyloid nucleation score was 0.074 ± 0.34.

Question: Which amyloid nucleation score does the source give for ITRSWLT here?
Answer: The amyloid nucleation score was -0.12 ± 0.3.

Question: With ITSIANFLWIL as the substance, how does the amyloid nucleation score read?
Answer: Its amyloid nucleation score is 3.03 ± 0.069.

Question: For ITYKLFVISCNEKRNLICHN, which amyloid nucleation score is on record?
Answer: Its amyloid nucleation score is -0.477 ± 0.32.

Question: Which amyloid nucleation score does the source give for ITYKSFYHIQCFSGTSCKRF here?
Answer: Its amyloid nucleation score is 3.1 ± 0.11.

Question: For IVENARWKVAAEPRNRRSSV, which amyloid nucleation score is on record?
Answer: The amyloid nucleation score was 0.273 ± 0.58.

Question: With IVGKQSVLYYDSVFVTWMYK as the substance, how does the amyloid nucleation score read?
Answer: The amyloid nucleation score was -0.509 ± 0.3.

Question: With IVGMASRCRGFR as the substance, how does the amyloid nucleation score read?
Answer: The amyloid nucleation score was 1.11 ± 0.71.

Question: Which amyloid nucleation score does the source give for IVLDT here?
Answer: The amyloid nucleation score was 0.227 ± 0.29.

Question: For IVLRDFHGLSWAWSLIVHVK, which amyloid nucleation score is on record?
Answer: The amyloid nucleation score was 0.039 ± 0.88.

Question: Which amyloid nucleation score does the source give for IVPAEAVLRRLQRFLRWLVV here?
Answer: Its amyloid nucleation score is -0.245 ± 1.1.

Question: With IVVFQ as the substance, how does the amyloid nucleation score read?
Answer: Its amyloid nucleation score is -0.887 ± 1.8.
